The record followed here is patent US9968935B2, “Devices for cell assays” (Platypus Technologies, LLC, priority 2007, dated 2018).

The data set concerns HT-1080 cells. The experiment in a line: Adherence and morphology of HT-1080 cells on photoimmobilized hyaluronic acid, before and after hyaluronidase treatment. The conditions noted are these: 30 minute treatment, 50 microliters of 1000 U/ml, wells not phototreated with HA. Format: cell-based. As for the experimental part:
This example describes the ability to block adhesion of HT-1080 cells to a surface coated with hyaluronic acid (HA). The HA was functionalized with a photoactive linker and immobilized to the bottom of a well in a tissue culture plate. The material was prepared by reacting the carboxyl group of HA disaccharides with the amine group of a heterobifunctional crosslinker (4-[p-azidosalicylamido]butylamine, ASBA) via carbodiimide chemistry. The other end of the ASBA crosslinker contains a photoactive group, so this reaction renders the HA photoactive. […] Briefly, the HA was dissolved in MES buffer and reacted with EDC and Sulfo-NHS for 15 min at room temperature. The pH of the buffer was adjusted to ca. 7.0 with concentrated PBS and ASBA was added to the solution and allowed to react for 2 h at room temperature in a light-proof vial. The reaction was quenched using 50 mM Tris. Unreacted components and reaction by-products were removed via dialysis against diH2O using a 3,000 MW exclusion. The reaction product was protected from exposure to light during lyophilization. Three species of photoactive HA were prepared that varied according to the molecular weight of the HA chains: low, medium and high MW chains.
The lyophilized, photoactive HA was reconstituted in PBS and adjusted to a working concentration of 0.2 mg/ml. […]

Consider Hyaluronidase, for which the “effect of hyaluronidase on cells attached to control wells without HA (morphology, toxicity)” value is given as “did not have a significant effect”. For the same substance, the “effect of hyaluronidase on cells attached to control wells without HA (morphology, toxicity)” value (listed as HA-ase) was “does not cause any gross morphological changes or have any toxic effects”.
